This is an account of results in KR20160085666A (dated 2016).

In the experiment the target is T1, c-Met-Fc (#358-MT/CF, R&D Systems) (UniProt P08581 25-932).
T1 construct: Bought reagent; also called 항원(c-Met); not shown: Fc part of the bought fusion
The experiment in a line: SPR, Biacore T100; antibody captured on human Fab binder on a CM5 chip, c-Met-Fc injected at various concentrations. On the technique in general: In SPR one partner is held on a chip, and binding of the other changes the refractive index at the surface.

T1 sequence (P08581 25-932 limits assumed): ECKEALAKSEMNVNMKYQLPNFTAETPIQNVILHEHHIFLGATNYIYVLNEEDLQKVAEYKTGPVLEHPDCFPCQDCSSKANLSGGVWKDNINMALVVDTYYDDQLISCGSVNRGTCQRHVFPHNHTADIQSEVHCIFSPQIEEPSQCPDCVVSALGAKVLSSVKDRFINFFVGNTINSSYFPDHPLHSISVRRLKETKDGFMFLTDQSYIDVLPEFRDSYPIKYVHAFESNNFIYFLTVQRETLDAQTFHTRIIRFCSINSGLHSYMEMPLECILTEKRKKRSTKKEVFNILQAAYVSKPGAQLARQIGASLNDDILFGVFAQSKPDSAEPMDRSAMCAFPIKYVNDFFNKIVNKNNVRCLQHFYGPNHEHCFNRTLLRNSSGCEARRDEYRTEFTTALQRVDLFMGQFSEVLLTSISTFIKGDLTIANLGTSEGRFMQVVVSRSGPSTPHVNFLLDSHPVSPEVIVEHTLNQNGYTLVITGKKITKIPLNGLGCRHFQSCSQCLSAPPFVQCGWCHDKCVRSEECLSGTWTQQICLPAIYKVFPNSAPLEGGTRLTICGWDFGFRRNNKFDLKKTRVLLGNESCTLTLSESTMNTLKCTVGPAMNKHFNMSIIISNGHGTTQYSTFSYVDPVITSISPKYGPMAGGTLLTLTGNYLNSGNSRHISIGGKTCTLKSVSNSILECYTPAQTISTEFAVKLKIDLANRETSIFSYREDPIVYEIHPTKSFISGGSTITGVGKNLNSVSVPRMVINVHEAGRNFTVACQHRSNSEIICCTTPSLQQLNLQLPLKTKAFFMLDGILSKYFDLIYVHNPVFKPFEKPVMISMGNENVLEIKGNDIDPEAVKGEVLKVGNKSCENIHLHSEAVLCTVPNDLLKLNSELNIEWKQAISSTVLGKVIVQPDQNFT

B1: 항 c-Met 항체 (L3-1Y/IgG2), GSKO301 세포 생산 (antibody, V domains shown)
VH: EVQLVESGGGLVQPGGSLRLSCAASGFTFTDYYMSWVRQAPGKGLEWLGFIRNKANGYTTEYSASVKGRFTISRDNSKNTLYLQMNSLRAEDTAVYYCARDNWFAYWGQGTLVTVSS
VL: DIQMTQSPSSLSASVGDRVTITCKSSQSLLASGNQNNYLAWYQQKPGKAPKMLIIWASTRVSGVPSRFSGSGSGTDFTLTISSLQPEDFATYYCQQSYSRPYTFGQGTKVEIKR
notes: Produced in GS-KO CHO cells that express the antibody only (GSKO301); also called STD (12A37); GSKO301 생산 항체
As for B1, binding was put at a Kd of 0.057 nM.

B2: 항 c-Met 항체 (L3-1Y/IgG2), GSKO301 GOT1 세포 생산 (antibody, V domains shown)
VH: EVQLVESGGGLVQPGGSLRLSCAASGFTFTDYYMSWVRQAPGKGLEWLGFIRNKANGYTTEYSASVKGRFTISRDNSKNTLYLQMNSLRAEDTAVYYCARDNWFAYWGQGTLVTVSS
VL: DIQMTQSPSSLSASVGDRVTITCKSSQSLLASGNQNNYLAWYQQKPGKAPKMLIIWASTRVSGVPSRFSGSGSGTDFTLTISSLQPEDFATYYCQQSYSRPYTFGQGTKVEIKR
notes: Produced in GS-KO CHO cells that express the antibody and overexpress GOT1 (GSKO301 GOT1); also called GSKO301 GOT1 생산 항체; anti-c-Met antibody L3-1Y/IgG2
For the molecule B2, the Kd was found to be 0.076 nM.

As a reminder, the Kd is the constant that tells how readily two partners part at equilibrium. Lower therefore signals higher affinity.
